{
  "source": "patent US20140302070A1",
  "key": {"[1]": {"target": "MHC class I H2-K^d-… (HIV-1; mouse) (UniProt P01902)", "experiment": "H2-K^d-… tetramer staining of splenocytes, flow cytometry"}, "[2]": {"target": "MHC class I H2-K^d-… (HIV-1; mouse) (UniProt P01902)"}},
  "data": [
    {"substance": "splenocytes (T cells) of mice vaccinated with msΔ42PD1-p24fc DNA (cells without a defined receptor)", "values": [
      {"measurement": "frequency of p24-specific tetramer^+ CD8^+ T cells", "setting": "[1]", "result": 17, "unit": "%"}
    ]},
    {"substance": "splenocytes (T cells) of mice immunized with human sΔ42PD1-p24fc DNA (cells without a defined receptor)", "values": [
      {"measurement": "IFN-γ ELISPOT (fold against the p24fc-immunized group)", "setting": "[2]", "result": 10}
    ]}
  ]
}
